In general, Kd refers to the free concentration of one partner at which half of the binding sites on the other are occupied at equilibrium, for simple one-to-one binding.

The results in this text go back to publication PMC7911018 (2021).

The target of this assay is HER2 ectodomain-Fc (96 kDa) (human, UniProt P04626 23-652). Kind of assay: SPR. In general terms: In SPR one partner is held on a chip, and binding of the other changes the refractive index at the surface.

B1: A10C (A10 CDRs grafted into the C8WT scaffold) (VHH)
VHH: DVQLQASGGGLAQPGGSLRLSCAASCDRMYWVRQAPGKGLEWVSSCDRYYADSVKGRFTISRDNAKNTLYLQMNSLKLEDTALYFCACDRGQGTQVTVSS
Take B1: the Kd came to 40.5 nM.

B2: VHH A10 (anti-HER2 nanobody) (VHH)
VHH: DVQLQASGGGFVQPGGSLRLSCAASGATSNISNMGWFRQAPGKEREFVSAISRAESRPLYYADSVKGRFTISRDNSKNTVYLQMNSLRAEDTATYYCAYMPLVRHKAYWGQGTQVTVSS
For the molecule B2, the Kd was determined as 8.1 nM.
